{"source": "patent US20210032299A1", "about": "(Eli Lilly, published 2021)", "binders": {"B1": {"name": "Example 43 (peptide)", "peptide": "Y[Aib]EGT[αMeF]ISDYSIALDKK([AEEA-AEEA-γGlu-C20 diacid])HQ[Aib]DFVE[4Pal]LLEAGPSSGAPPPS-NH2", "modifications": "N-terminus assumed", "SMILES": "CC[C@H](C)[C@H](NC(=O)[C@H](CO)NC(=O)[C@H](Cc1ccc(O)cc1)NC(=O)[C@H](CC(=O)O)NC(=O)[C@H](CO)NC(=O)[C@@H](NC(=O)[C@](C)(Cc1ccccc1)NC(=O)[C@@H](NC(=O)CNC(=O)[C@H](CCC(=O)O)NC(=O)C(C)(C)NC(=O)[C@@H](N)Cc1ccc(O)cc1)[C@@H](C)O)[C@@H](C)CC)C(=O)N[C@@H](C)C(=O)N[C@@H](CC(C)C)C(=O)N[C@@H](CC(=O)O)C(=O)N[C@@H](CCCCN)C(=O)N[C@@H](CCCCNC(=O)COCCOCCNC(=O)COCCOCCNC(=O)CC[C@H](NC(=O)CCCCCCCCCCCCCCCCCCC(=O)O)C(=O)O)C(=O)N[C@@H](Cc1c[nH]cn1)C(=O)N[C@@H](CCC(N)=O)C(=O)NC(C)(C)C(=O)N[C@@H](CC(=O)O)C(=O)N[C@@H](Cc1ccccc1)C(=O)N[C@H](C(=O)N[C@@H](CCC(=O)O)C(=O)N[C@@H](Cc1ccncc1)C(=O)N[C@@H](CC(C)C)C(=O)N[C@@H](CC(C)C)C(=O)N[C@@H](CCC(=O)O)C(=O)N[C@@H](C)C(=O)NCC(=O)N1CCC[C@H]1C(=O)N[C@@H](CO)C(=O)N[C@@H](CO)C(=O)NCC(=O)N[C@@H](C)C(=O)N1CCC[C@H]1C(=O)N1CCC[C@H]1C(=O)N1CCC[C@H]1C(=O)N[C@@H](CO)C(N)=O)C(C)C"}, "B2": {"name": "Example 34 (peptide)", "peptide": "Y[Aib]EGT[αMePhe(2-F)]ISDYSIALDKK([AEEA-AEEA-γGlu-C20 diacid])HQ[Aib]EFVNYLLATGPSSGAPPPS-NH2", "modifications": "N-terminus assumed", "SMILES": "CC[C@H](C)[C@H](NC(=O)[C@H](CO)NC(=O)[C@H](Cc1ccc(O)cc1)NC(=O)[C@H](CC(=O)O)NC(=O)[C@H](CO)NC(=O)[C@@H](NC(=O)[C@](C)(Cc1ccccc1F)NC(=O)[C@@H](NC(=O)CNC(=O)[C@H](CCC(=O)O)NC(=O)C(C)(C)NC(=O)[C@@H](N)Cc1ccc(O)cc1)[C@@H](C)O)[C@@H](C)CC)C(=O)N[C@@H](C)C(=O)N[C@@H](CC(C)C)C(=O)N[C@@H](CC(=O)O)C(=O)N[C@@H](CCCCN)C(=O)N[C@@H](CCCCNC(=O)COCCOCCNC(=O)COCCOCCNC(=O)CC[C@H](NC(=O)CCCCCCCCCCCCCCCCCCC(=O)O)C(=O)O)C(=O)N[C@@H](Cc1c[nH]cn1)C(=O)N[C@@H](CCC(N)=O)C(=O)NC(C)(C)C(=O)N[C@@H](CCC(=O)O)C(=O)N[C@@H](Cc1ccccc1)C(=O)N[C@H](C(=O)N[C@@H](CC(N)=O)C(=O)N[C@@H](Cc1ccc(O)cc1)C(=O)N[C@@H](CC(C)C)C(=O)N[C@@H](CC(C)C)C(=O)N[C@@H](C)C(=O)N[C@H](C(=O)NCC(=O)N1CCC[C@H]1C(=O)N[C@@H](CO)C(=O)N[C@@H](CO)C(=O)NCC(=O)N[C@@H](C)C(=O)N1CCC[C@H]1C(=O)N1CCC[C@H]1C(=O)N1CCC[C@H]1C(=O)N[C@@H](CO)C(N)=O)[C@@H](C)O)C(C)C"}, "B3": {"name": "Example 36 (peptide)", "peptide": "Y[Aib]EGT[αMePhe(2-F)]ISDYSIALDKK([AEEA-AEEA-γGlu-C20 diacid])HQ[Aib]DFVEYLLETGPSSGAPPPS-NH2", "modifications": "N-terminus assumed", "SMILES": "CC[C@H](C)[C@H](NC(=O)[C@H](CO)NC(=O)[C@H](Cc1ccc(O)cc1)NC(=O)[C@H](CC(=O)O)NC(=O)[C@H](CO)NC(=O)[C@@H](NC(=O)[C@](C)(Cc1ccccc1F)NC(=O)[C@@H](NC(=O)CNC(=O)[C@H](CCC(=O)O)NC(=O)C(C)(C)NC(=O)[C@@H](N)Cc1ccc(O)cc1)[C@@H](C)O)[C@@H](C)CC)C(=O)N[C@@H](C)C(=O)N[C@@H](CC(C)C)C(=O)N[C@@H](CC(=O)O)C(=O)N[C@@H](CCCCN)C(=O)N[C@@H](CCCCNC(=O)COCCOCCNC(=O)COCCOCCNC(=O)CC[C@H](NC(=O)CCCCCCCCCCCCCCCCCCC(=O)O)C(=O)O)C(=O)N[C@@H](Cc1c[nH]cn1)C(=O)N[C@@H](CCC(N)=O)C(=O)NC(C)(C)C(=O)N[C@@H](CC(=O)O)C(=O)N[C@@H](Cc1ccccc1)C(=O)N[C@H](C(=O)N[C@@H](CCC(=O)O)C(=O)N[C@@H](Cc1ccc(O)cc1)C(=O)N[C@@H](CC(C)C)C(=O)N[C@@H](CC(C)C)C(=O)N[C@@H](CCC(=O)O)C(=O)N[C@H](C(=O)NCC(=O)N1CCC[C@H]1C(=O)N[C@@H](CO)C(=O)N[C@@H](CO)C(=O)NCC(=O)N[C@@H](C)C(=O)N1CCC[C@H]1C(=O)N1CCC[C@H]1C(=O)N1CCC[C@H]1C(=O)N[C@@H](CO)C(N)=O)[C@@H](C)O)C(C)C"}, "B4": {"name": "Example 25 (peptide)", "peptide": "Y[Aib]EGT[αMeF]ISDYSIALDKK([AEEA-AEEA-γGlu-C20 diacid])HQ[Aib]EFVNWLLAGGPSSGAPPPS-NH2", "modifications": "N-terminus assumed", "SMILES": "CC[C@H](C)[C@H](NC(=O)[C@H](CO)NC(=O)[C@H](Cc1ccc(O)cc1)NC(=O)[C@H](CC(=O)O)NC(=O)[C@H](CO)NC(=O)[C@@H](NC(=O)[C@](C)(Cc1ccccc1)NC(=O)[C@@H](NC(=O)CNC(=O)[C@H](CCC(=O)O)NC(=O)C(C)(C)NC(=O)[C@@H](N)Cc1ccc(O)cc1)[C@@H](C)O)[C@@H](C)CC)C(=O)N[C@@H](C)C(=O)N[C@@H](CC(C)C)C(=O)N[C@@H](CC(=O)O)C(=O)N[C@@H](CCCCN)C(=O)N[C@@H](CCCCNC(=O)COCCOCCNC(=O)COCCOCCNC(=O)CC[C@H](NC(=O)CCCCCCCCCCCCCCCCCCC(=O)O)C(=O)O)C(=O)N[C@@H](Cc1c[nH]cn1)C(=O)N[C@@H](CCC(N)=O)C(=O)NC(C)(C)C(=O)N[C@@H](CCC(=O)O)C(=O)N[C@@H](Cc1ccccc1)C(=O)N[C@H](C(=O)N[C@@H](CC(N)=O)C(=O)N[C@@H](Cc1c[nH]c2ccccc12)C(=O)N[C@@H](CC(C)C)C(=O)N[C@@H](CC(C)C)C(=O)N[C@@H](C)C(=O)NCC(=O)NCC(=O)N1CCC[C@H]1C(=O)N[C@@H](CO)C(=O)N[C@@H](CO)C(=O)NCC(=O)N[C@@H](C)C(=O)N1CCC[C@H]1C(=O)N1CCC[C@H]1C(=O)N1CCC[C@H]1C(=O)N[C@@H](CO)C(N)=O)C(C)C"}, "B5": {"name": "Example 26 (peptide)", "peptide": "Y[Aib]EGT[αMePhe(2-F)]ISDYSIALDKK([AEEA-AEEA-γGlu-C20 diacid])HQ[Aib]EFVNWLLAGGPSSGAPPPS-NH2", "modifications": "N-terminus assumed", "SMILES": "CC[C@H](C)[C@H](NC(=O)[C@H](CO)NC(=O)[C@H](Cc1ccc(O)cc1)NC(=O)[C@H](CC(=O)O)NC(=O)[C@H](CO)NC(=O)[C@@H](NC(=O)[C@](C)(Cc1ccccc1F)NC(=O)[C@@H](NC(=O)CNC(=O)[C@H](CCC(=O)O)NC(=O)C(C)(C)NC(=O)[C@@H](N)Cc1ccc(O)cc1)[C@@H](C)O)[C@@H](C)CC)C(=O)N[C@@H](C)C(=O)N[C@@H](CC(C)C)C(=O)N[C@@H](CC(=O)O)C(=O)N[C@@H](CCCCN)C(=O)N[C@@H](CCCCNC(=O)COCCOCCNC(=O)COCCOCCNC(=O)CC[C@H](NC(=O)CCCCCCCCCCCCCCCCCCC(=O)O)C(=O)O)C(=O)N[C@@H](Cc1c[nH]cn1)C(=O)N[C@@H](CCC(N)=O)C(=O)NC(C)(C)C(=O)N[C@@H](CCC(=O)O)C(=O)N[C@@H](Cc1ccccc1)C(=O)N[C@H](C(=O)N[C@@H](CC(N)=O)C(=O)N[C@@H](Cc1c[nH]c2ccccc12)C(=O)N[C@@H](CC(C)C)C(=O)N[C@@H](CC(C)C)C(=O)N[C@@H](C)C(=O)NCC(=O)NCC(=O)N1CCC[C@H]1C(=O)N[C@@H](CO)C(=O)N[C@@H](CO)C(=O)NCC(=O)N[C@@H](C)C(=O)N1CCC[C@H]1C(=O)N1CCC[C@H]1C(=O)N1CCC[C@H]1C(=O)N[C@@H](CO)C(N)=O)C(C)C"}}, "note": "Starred links: 1 amine or outer side, 2 acyl side, 3 side chain; linkers in the order of their positions; H or OH if unused. Non-standard residues stand in square brackets, D forms with d. Groups on a side chain read outwards from the residue. No end group written: not given here. *: point of attachment. C20 diacid = O=C(O)CCCCCCCCCCCCCCCCCCC(=O)*; αMePhe(2-F) = C[C@](N)(Cc1ccccc1F)C(=O)O; γGlu = O=C(O)[C@H](CCC(=O)[*:2])N[*:1]; αMeF = C[C@](N)(Cc1ccccc1)C(=O)O; 4Pal = N[C@@H](Cc1ccncc1)C(=O)O; AEEA = NCCOCCOCC(=O)O; Aib = CC(C)(N)C(=O)O", "data": [{"target": "T1, human glucagon receptor (human, UniProt P47871 26-477)", "T1 construct": "whole, on cells; Assayed as crude membranes of stably transfected HEK293 cells; also called hGcgR; GcgR", "T1 sequence (P47871 26-477)": "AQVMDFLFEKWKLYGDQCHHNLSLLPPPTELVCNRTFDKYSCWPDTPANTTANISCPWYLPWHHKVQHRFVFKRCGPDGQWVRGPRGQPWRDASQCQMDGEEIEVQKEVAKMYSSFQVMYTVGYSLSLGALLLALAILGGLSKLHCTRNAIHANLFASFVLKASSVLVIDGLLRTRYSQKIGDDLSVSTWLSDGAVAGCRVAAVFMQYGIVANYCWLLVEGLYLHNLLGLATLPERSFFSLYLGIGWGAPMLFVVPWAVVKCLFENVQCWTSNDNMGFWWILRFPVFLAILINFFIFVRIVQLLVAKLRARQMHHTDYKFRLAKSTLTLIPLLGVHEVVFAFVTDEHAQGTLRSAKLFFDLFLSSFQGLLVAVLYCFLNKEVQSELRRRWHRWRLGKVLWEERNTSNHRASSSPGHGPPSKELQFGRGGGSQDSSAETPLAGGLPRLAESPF", "test": "SPA, displacement of [125I]-Gcg from hGcgR membranes, 0.1% bacitracin", "outline": "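Binding buffer: 25 mM HEPES pH 7.4, 2.5 mM CaCl₂, 1 mM MgCl₂, 0.003% Tween-20, protease inhibitors without EDTA. Counted by scintillation after 12 h incubation/settling at room temperature. Four-parameter nonlinear fit; Kᵢ given as geometric mean ± SEM of independent replicates run on different days.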", "units": {"Ki": "nM"}, "values": [{"binder": "B1", "Ki": 285}, {"binder": "B2", "Ki": 143}, {"binder": "B3", "Ki": 201}, {"binder": "B4", "Ki": 101}, {"binder": "B5", "Ki": 74.1}]}, {"target": "T2, human GLP-1 receptor (human, UniProt P43220 24-463)", "T2 construct": "whole, on cells; Assayed as crude membranes of stably transfected HEK293 cells; also called hGLP1R; hGLP-1R", "test": "SPA, displacement of [125I]-GLP-1 from hGLP-1R membranes, 0.1% bacitracin", "outline": "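Binding buffer: 25 mM HEPES pH 7.4, 2.5 mM CaCl₂, 1 mM MgCl₂, 0.1% bacitracin, 0.003% Tween-20, protease inhibitors without EDTA. Four-parameter nonlinear regression; Kᵢ given as geometric mean ± SEM, n = independent replicates run on different days.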", "units": {"Ki": "nM"}, "values": [{"binder": "B1", "Ki": 605}, {"binder": "B2", "Ki": 201}, {"binder": "B3", "Ki": 393}, {"binder": "B4", "Ki": 15.8}, {"binder": "B5", "Ki": 16.5}]}, {"target": "T3, human glucose-dependent insulinotropic polypeptide (GIP) receptor (human, UniProt P48546 22-466)", "T3 construct": "whole, on cells; Assayed as crude membranes of stably transfected CHO cells; also called hGIPR; human GIP receptor", "T3 sequence (looked up)": "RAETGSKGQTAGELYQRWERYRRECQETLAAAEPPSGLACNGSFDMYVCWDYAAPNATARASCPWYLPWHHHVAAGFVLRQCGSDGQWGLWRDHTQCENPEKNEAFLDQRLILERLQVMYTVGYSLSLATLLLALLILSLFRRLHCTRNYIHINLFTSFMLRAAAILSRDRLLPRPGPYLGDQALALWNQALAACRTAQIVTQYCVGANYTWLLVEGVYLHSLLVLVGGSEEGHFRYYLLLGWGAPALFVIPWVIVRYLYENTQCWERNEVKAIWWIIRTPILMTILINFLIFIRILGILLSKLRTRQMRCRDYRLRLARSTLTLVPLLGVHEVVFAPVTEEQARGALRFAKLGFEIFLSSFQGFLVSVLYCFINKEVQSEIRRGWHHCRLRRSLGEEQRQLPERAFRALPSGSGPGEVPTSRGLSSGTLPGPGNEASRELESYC", "test": "SPA, displacement of [125I]-GIP from hGIPR membranes, 0.1% bacitracin", "units": {"Ki": "nM"}, "values": [{"binder": "B1", "Ki": 0.0366}, {"binder": "B2", "Ki": 0.034}, {"binder": "B3", "Ki": 0.0683}, {"binder": "B4", "Ki": 0.0417}, {"binder": "B5", "Ki": 0.045}]}]}
